Where “and” joins values, the source holds several entries; their conditions need not be identical. Equal entries are not always repeated. * marks the point of attachment. Bz = O=C(c1ccccc1)*

The series is described as follows: Cysteine challenge stability of ^99mTc chelator peptides. It is filed as physicochemical. As to the method:
For the ^99mTc radiolabeling, a peptide as the TFA salt was dissolved in saline at 1 mg/mL and 100 μg (100 μL) was added to a ^99mTc placebo vial. The vial was reconstituted with 0.9 mL technetium ^99mTc sodium pertechnetate containing approximately 20 mCi and saline such that the final preparation volume was 1.1 mL. The vial was heated in a boiling water bath for 10 minutes and cooled at room temperature for 10 minutes.
The radiochemical purity (RCP) of the ^99mTc or ^188Re peptides was measured by gradient reversed phase HPLC using a Eurosphere-100 C18 HPLC column and 0.1% TFA mobile phases moderated with acetonitrile. Radioactive components were detected in the HPLC system using an in-line radiometric detector. Under the gradient conditions employed radiolabeled impurities (for example: ^99mTc glucoheptonate, ^99mTc edetate, and ^99mTc pertechnetate) eluted early (between 1 and 4 minutes), while the radiolabeled peptides eluted much later (between 8 and 20 minutes). In general, two isomeric radiometal complexes were observed, and the HPLC RCP was measured as the sum of the percent areas of the peaks corresponding to the two complexes. Radiochemical purity results for each of compounds are summarized in the examples that follow.
To ^99mTc radiolabelled peptide preparations described in Example 3 was added 150 μg of cysteine (approximately a 7-fold molar excess over peptide), and the preparations were stored at room temperature and monitored by HPLC for up to 12 hours. The amount of ^99mTc cysteine formed over time was noted. The initial HPLC analysis was started within 5 minutes of adding cysteine. In all cysteine challenge studies, a chelator compound containing a stabilizing sidechain was screened vs. the corresponding control chelator compound containing no sidechain. The relative amount of ^99mTc cysteine formed over time correlates inversely with the stability of the chelator (ie. less ^99mTc cysteine indicates higher chelator stability).
Several model chelator peptides were prepared with an N^1—N^2-Cys (N^1, N^2=independently any amino acid) amino acid sequence capable of complexing technetium as a triamide thiol chelator. Various stabilizing sidechains were substituted into the N^1—N^2-Cys chelator in two positions R1 and R2 as depicted in FIG. 4. The compounds were screened in the cysteine challenge experiment described in Example 4. Several experiments were conducted where 1-2 chelators were compared directly to a control chelator containing no stabilizing sidechain (compound GoC1 was also analyzed alone in a further study). Results in Table 5 represent % Peptide complexed to ^99mTc (ie. 100%−the amount of ^99mTc cysteine) vs. time.
Several model chelator peptides were prepared with an (β)Dap-N^2-Cys (N^2=any amino acid) amino acid sequence capable of complexing technetium as an amine diamide thiol chelator. This chelator is the chelator in the somatostatin peptides that were evaluated in Examples 5 and 6. Various stabilizing sidechains were substituted into the (β)Dap-N^2-Cys chelator in two positions R3 and R4 as depicted in FIG. 5. The compounds were screened in the cysteine challenge experiment described in Example 4. Several experiments were conducted where 1-2 chelators were compared directly to a control chelator containing no stabilizing sidechain. Results in Table 6 are the same as described in Example 7.
Two model chelator peptides were prepared with a ma-N^1—N^2 (Ma=mercaptoacetyl; N^1, N^2=independently any amino acid) amino acid sequence capable of complexing technetium as a triamide thiol chelator. This chelator has the thiol donor group at the N-terminus of the peptide. A stabilizing sidechain was substituted into the ma-N^1—N^2 chelator in position R5 as depicted in FIG. 6. The compounds were radiolabeled according to Example 3 with the exception that additional NaOH was added to bring the pH of the preparation up to pH 8.5. […]

[1] abbreviates: (β)Dap-N2-Cys amine diamide thiol chelators, cysteine challenge.
[2] abbreviates: (β)Dap-N2-Cys amine diamide thiol chelators, cysteine challenge, Initial.
Where [3] appears, read: N1-N2-Cys triamide thiol chelators, 150 μg cysteine, room temperature, Initial (within 5 minutes).
Where [4] appears, read: N1-N2-Cys triamide thiol chelators, cysteine challenge.
Setting [5] is: (β)Dap-N2-Cys amine diamide thiol chelators, cysteine challenge, listed as Dap.GC.

Take “Ac-Tyr-Gly-(β)Dap(COCH2CH2NH2)-Gly-Cys-Ala.amide [Dap-Y.GC]”: under setting [1], the “% Peptide Complexed to ^99mTc 2 h” value was 84.6%, the “% Peptide Complexed to ^99mTc 4 h” value was 84.1%, the “% Peptide Complexed to ^99mTc 6 h” value is recorded as 82.9% and the “% Peptide Complexed to ^99mTc 8 h” value is 80.7%. For the same substance, under setting [1], the “% Peptide Complexed to ^99mTc 10 h” value came to 80.0% and the “% Peptide Complexed to ^99mTc 12 h” value stood at 77.2%. For the same substance, the “% Peptide Complexed to ^99mTc Initial” value under setting [2] is recorded as 93.7%.
In the case of “Ac-Tyr-Gly-(β)Dap-Gly-Cys-Ala.amide [Dap.GC2]”, under setting [1], the “% Peptide Complexed to ^99mTc 2 h” value is listed as 67.7%, the “% Peptide Complexed to ^99mTc 4 h” value was 55.1%, the “% Peptide Complexed to ^99mTc 6 h” value is recorded as 49.6% and the “% Peptide Complexed to ^99mTc 8 h” value is reported as 44.7%. Further, under setting [1], the “% Peptide Complexed to ^99mTc 10 h” value is 38.0% and the “% Peptide Complexed to ^99mTc 12 h” value is on record as 38.7%. Also, the “% Peptide Complexed to ^99mTc Initial” value under setting [2] is on record as 83.4%.
As for “Ac-Tyr-Gly-Gln-Gly-Cys-Ala.amide (Ac-YGQGCA-NH2)”, the “% Peptide Complexed to ^99mTc Initial” value under setting [3] was 92.9% and 96.3%. Also, under setting [4], the “% Peptide Complexed to ^99mTc 2 h” value was 88.7% and 88.3%; the “% Peptide Complexed to ^99mTc 4 h” value is 88.8% and 86.1%; the “% Peptide Complexed to ^99mTc 6 h” value was 86.6% and 84.0%; the “% Peptide Complexed to ^99mTc 8 h” value was 85.6% and 82.0%. In addition, under setting [4], the “% Peptide Complexed to ^99mTc 10 h” value is 83.8% and 77.6%; the “% Peptide Complexed to ^99mTc 12 h” value is 84.2% and 75.9%.
As to “Ac-Tyr-Gly-Glu-Gly-Cys-Ala.amide (Ac-YGEGCA-NH2)”, under setting [3], the “% Peptide Complexed to ^99mTc Initial” value is 91.4%. Under setting [4], the “% Peptide Complexed to ^99mTc 2 h” value turned out to be 84.1%, the “% Peptide Complexed to ^99mTc 4 h” value is listed as 78.1%, the “% Peptide Complexed to ^99mTc 6 h” value came out at 73.3% and the “% Peptide Complexed to ^99mTc 8 h” value worked out at 67.4%. Further, the “% Peptide Complexed to ^99mTc 10 h” value under setting [4] was found to be 60.1%.
With “Ac-Tyr-Gly-Gly-(D)Orn-Cys-Ala.amide [GoC2]”, the “% Peptide Complexed to ^99mTc Initial” value under setting [3] is on record as 94.3%. In addition, under setting [4], the “% Peptide Complexed to ^99mTc 2 h” value worked out at 91.1%, the “% Peptide Complexed to ^99mTc 4 h” value is recorded as 89.1%, the “% Peptide Complexed to ^99mTc 6 h” value is given as 89.2% and the “% Peptide Complexed to ^99mTc 8 h” value amounted to 89.0%. Under setting [4], the “% Peptide Complexed to ^99mTc 10 h” value turned out to be 87.2% and the “% Peptide Complexed to ^99mTc 12 h” value came to 86.9%.
For the substance “Ac-Tyr-Gly-Gly-Gly-Cys-Ala.amide (Ac-YGGGCA-NH2) [GGC2, control chelator, no stabilizing sidechain]”, under setting [3], the “% Peptide Complexed to ^99mTc Initial” value is 90.1% and 92.0% and 95.7% and 93.6%. For the same substance, under setting [4], the “% Peptide Complexed to ^99mTc 2 h” value was 70.7% and 80.7% and 79.3% and 81.0% and 77.8%; the “% Peptide Complexed to ^99mTc 4 h” value is 61.8% and 72.0% and 70.5% and 73.3% and 67.5%; the “% Peptide Complexed to ^99mTc 6 h” value is 57.1% and 65.7% and 65.6% and 61.0% and 60.4%; the “% Peptide Complexed to ^99mTc 8 h” value is 46.2% and 61.0% and 57.8% and 53.0% and 54.7%. Moreover, under setting [4], the “% Peptide Complexed to ^99mTc 10 h” value is 39.1% and 59.0% and 55.1% and 48.0% and 50.2%; the “% Peptide Complexed to ^99mTc 12 h” value was 33.3% and 57.2% and 44.5% and 41.2% and 46.6%.
Turning to “Ac-Tyr-Gly-Gly-His-Cys-Ala.amide (Ac-YGGHCA-NH2)”, the “% Peptide Complexed to ^99mTc Initial” value under setting [3] came out at 78.8%. Under setting [4], the “% Peptide Complexed to ^99mTc 2 h” value came out at 74.3%, the “% Peptide Complexed to ^99mTc 4 h” value was found to be 72.9%, the “% Peptide Complexed to ^99mTc 6 h” value is 70.9% and the “% Peptide Complexed to ^99mTc 8 h” value was 68.8%. For the same substance, under setting [4], the “% Peptide Complexed to ^99mTc 10 h” value amounted to 69.2% and the “% Peptide Complexed to ^99mTc 12 h” value is reported as 67.9%.
Regarding Ac-Tyr-Gly-Gly-Orn-Cys-Ala.amide [GOC], the “% Peptide Complexed to ^99mTc Initial” value under setting [3] came out at 98.2%. For the same substance, under setting [4], the “% Peptide Complexed to ^99mTc 2 h” value was 93.8%, the “% Peptide Complexed to ^99mTc 4 h” value is 90.0%, the “% Peptide Complexed to ^99mTc 6 h” value worked out at 86.1% and the “% Peptide Complexed to ^99mTc 8 h” value came to 80.0%. Under setting [4], the “% Peptide Complexed to ^99mTc 10 h” value was 78.1% and the “% Peptide Complexed to ^99mTc 12 h” value was 88.6%.
For the substance “Ac-Tyr-Gly-Met-Gly-Cys-Ala.amide (Ac-YGMGCA-NH2)”, under setting [3], the “% Peptide Complexed to ^99mTc Initial” value is recorded as 93.9%. Under setting [4], the “% Peptide Complexed to ^99mTc 2 h” value is on record as 92.4%, the “% Peptide Complexed to ^99mTc 4 h” value is on record as 89.3%, the “% Peptide Complexed to ^99mTc 6 h” value was found to be 85.9% and the “% Peptide Complexed to ^99mTc 8 h” value stood at 82.0%. Further, under setting [4], the “% Peptide Complexed to ^99mTc 10 h” value stood at 79.9% and the “% Peptide Complexed to ^99mTc 12 h” value was 77.2%.
Consider “Bz-Gly-(β)Dap-Gly-Cys-Ala.amide [Dap.GC1]”, for which, under setting [1], the “% Peptide Complexed to ^99mTc 2 h” value is listed as 78.1%, the “% Peptide Complexed to ^99mTc 4 h” value was found to be 62.7%, the “% Peptide Complexed to ^99mTc 6 h” value came to 57.8% and the “% Peptide Complexed to ^99mTc 8 h” value is reported as 51.9%. In addition, under setting [1], the “% Peptide Complexed to ^99mTc 10 h” value is 46.2% and the “% Peptide Complexed to ^99mTc 12 h” value was 43.3%. Under setting [5], the “% Peptide Complexed to ^99mTc 2 h” value is given as 78.9%, the “% Peptide Complexed to ^99mTc 4 h” value turned out to be 42.6%, the “% Peptide Complexed to ^99mTc 6 h” value turned out to be 51.6% and the “% Peptide Complexed to ^99mTc 8 h” value came out at 46.3%. Under setting [5], the “% Peptide Complexed to ^99mTc 12 h” value came out at 37.6%. For the same substance, the “% Peptide Complexed to ^99mTc Initial” value under setting [2] was 81.7%.
Regarding “Bz-Gly-(β)Dap-Met-Cys-Ala.amide [Dap.MC]”, under setting [1], the “% Peptide Complexed to ^99mTc 2 h” value stood at 95.4%, the “% Peptide Complexed to ^99mTc 4 h” value is recorded as 89.8%, the “% Peptide Complexed to ^99mTc 6 h” value worked out at 92.6% and the “% Peptide Complexed to ^99mTc 8 h” value is 91.6%. Further, under setting [1], the “% Peptide Complexed to ^99mTc 10 h” value was 88.4% and the “% Peptide Complexed to ^99mTc 12 h” value came to 89.7%. In addition, the “% Peptide Complexed to ^99mTc Initial” value under setting [2] is 97.4%.
As to “Bz-Gly-Gly-Gln-Cys-Ala.amide (Bz-GGQCA-NH2; SMILES C[C@H](NC(=O)[C@H](CS)NC(=O)[C@H](CCC(N)=O)NC(=O)CNC(=O)CNC(=O)c1ccccc1)C(N)=O)”, the “% Peptide Complexed to ^99mTc Initial” value under setting [3] is listed as 97.8%. In addition, under setting [4], the “% Peptide Complexed to ^99mTc 2 h” value is 93.2%, the “% Peptide Complexed to ^99mTc 4 h” value was found to be 88.7%, the “% Peptide Complexed to ^99mTc 6 h” value was found to be 82.4% and the “% Peptide Complexed to ^99mTc 8 h” value turned out to be 80.1%. In addition, under setting [4], the “% Peptide Complexed to ^99mTc 10 h” value was determined as 78.7% and the “% Peptide Complexed to ^99mTc 12 h” value was 73.5%.
In the case of “Bz-Gly-Gly-Met-Cys-Ala.amide (Bz-GGMCA-NH2; SMILES CSCC[C@H](NC(=O)CNC(=O)CNC(=O)c1ccccc1)C(=O)N[C@@H](CS)C(=O)N[C@@H](C)C(N)=O)”, the “% Peptide Complexed to ^99mTc Initial” value under setting [3] came out at 96.9%. Under setting [4], the “% Peptide Complexed to ^99mTc 2 h” value worked out at 92.6%, the “% Peptide Complexed to ^99mTc 4 h” value stood at 88.6%, the “% Peptide Complexed to ^99mTc 6 h” value stood at 83.7% and the “% Peptide Complexed to ^99mTc 8 h” value is 82.7%. Moreover, under setting [4], the “% Peptide Complexed to ^99mTc 10 h” value came to 78.6% and the “% Peptide Complexed to ^99mTc 12 h” value stood at 77.2%.

These data come from patent US7481993B2, “Chelators for radioactively labeled conjugates comprising a stabilizing sidechain” (Schering AG, priority 2005, dated 2009).
